Experimental data: publication PMC12132310

Experiments:
[1] = biological target: SUZ12-3XFLAG PRC2.2mut (loss-of-PRC2.2 mutant, F99A, R103A, L105A, I106A) (human (edited endogenous locus in WTC-11 hiPSCs)), Q15022; assay: affinity purification with mass spectrometry; conditions: remark: other sources report otherwise
[2] = biological target: SUZ12-3XFLAG PRC2.1mut (loss-of-PRC2.1 mutant, (338–353)-to-GSGSGS) (human (edited endogenous locus in WTC-11 hiPSCs)), Q15022; assay: affinity purification with mass spectrometry; conditions: remark: other sources report otherwise

| fold less enriched than with WT SUZ12 [1] | fold less enriched than with WT SUZ12 [2] | Binder |
| --- | --- | --- |
| 13 fold |  | JARID2 (endogenous, hiPSCs), Q92833 1-1246 (natural protein) MSKERPKRNIIQKKYDDSDGIPWSEERVVRKVLYLSLKEFKNSQKRQHAEGIAGSLKTVNGLLGNDQSKGLGPASEQSENEKDDASQVSSTSNDVSSSDFEEGPSRKRPRLQAQRKFAQSQPNSPSTTPVKIVEPLLPPPATQISDLSKRKPKTEDFLTFLCLRGSPALPNSMVYFGSSQDEEEVEEEDDETEDVKTATNNASSSCQSTPRKGKTHKHVHNGHVFNGSSRSTREKEPVQKHKSKEATPAKEKHSDHRADSRREQASANHPAAAPSTGSSAKGLAATHHHPPLHRSAQDLRKQVSKVNGVTRMSSLGAGVTSAKKMREVRPSPSKTVKYTATVTKGAVTYTKAKRELVKDTKPNHHKPSSAVNHTISGKTESSNAKTRKQVLSLGGASKSTGPAVNGLKVSGRLNPKSCTKEVGGRQLREGLQLREGLRNSKRRLEEAHQAEKPQSPPKKMKGAAGPAEGPGKKAPAERGLLNGHVKKEVPERSLERNRPKRATAGKSTPGRQAHGKADSASCENRSTSQPESVHKPQDSGKAEKGGGKAGWAAMDEIPVLRPSAKEFHDPLIYIESVRAQVEKFGMCRVIPPPDWRPECKLNDEMRFVTQIQHIHKLGRRWGPNVQRLACIKKHLKSQGITMDELPLIGGCELDLACFFRLINEMGGMQQVTDLKKWNKLADMLRIPRTAQDRLAKLQEAYCQYLLSYDSLSPEEHRRLEKEVLMEKEILEKRKGPLEGHTENDHHKFHPLPRFEPKNGLIHGVAPRNGFRSKLKEVGQAQLKTGRRRLFAQEKEVVKEEEEDKGVLNDFHKCIYKGRSVSLTTFYRTARNIMSMCFSKEPAPAEIEQEYWRLVEEKDCHVAVHCGKVDTNTHGSGFPVGKSEPFSRHGWNLTVLPNNTGSILRHLGAVPGVTIPWLNIGMVFSTSCWSRDQNHLPYIDYLHTGADCIWYCIPAEEENKLEDVVHTLLQANGTPGLQMLESNVMISPEVLCKEGIKVHRTVQQSGQFVVCFPGSFVSKVCCGYSVSETVHFATTQWTSMGFETAKEMKRRHIAKPFSMEKLLYQIAQAEAKKENGPTLSTISALLDELRDTELRQRRQLFEAGLHSSARYGSHDGSSTVADGKKKPRKWLQLETSERRCQICQHLCYLSMVVQENENVVFCLECALRHVEKQKSCRGLKLMYRYDEEQIISLVNQICGKVSGKNGSIENCLSKPTPKRGPRKRATVDVPPSRLSASSSSKSASSSS |
|  | 48 fold | EPOP, A6NHQ4 1-379 (natural protein) METLCPAPRLAVPASPRGSPCSPTPRKPCRGTQEFSPLCLRALAFCALAKPRASSLGPGPGELAARSPVLRGPQAPLRPGGWAPDGLKHLWAPTGRPGVPNTAAGEDADVAACPRRGEEEEGGGGFPHFGVRSCAPPGRCPAPPHPRESTTSFASAPPRPAPGLEPQRGPAASPPQEPSSRPPSPPAGLSTEPAGPGTAPRPFLPGQPAEVDGNPPPAAPEAPAASPSTASPAPAAPGDLRQEHFDRLIRRSKLWCYAKGFALDTPSLRRGPERPPAKGPARGAAKKRRLPAPPPRTAQPRRPAPTLPTTSTFSLLNCFPCPPALVVGEDGDLKPASSLRLQGDSKPPPAHPLWRWQMGGPAVPEPPGLKFWGINMDES |
|  | 35 fold | MTF2 (endogenous, hiPSCs), Q9Y483 1-593 (natural protein) MRDSTGAGNSLVHKRSPLRRNQKTPTSLTKLSLQDGHKAKKPACKFEEGQDVLARWSDGLFYLGTIKKINILKQSCFIIFEDSSKSWVLWKDIQTGATGSGEMVCTICQEEYSEAPNEMVICDKCGQGYHQLCHTPHIDSSVIDSDEKWLCRQCVFATTTKRGGALKKGPNAKALQVMKQTLPYSVADLEWDAGHKTNVQQCYCYCGGPGDWYLKMLQCCKCKQWFHEACVQCLQKPMLFGDRFYTFICSVCSSGPEYLKRLPLQWVDIAHLCLYNLSVIHKKKYFDSELELMTYINENWDRLHPGELADTPKSERYEHVLEALNDYKTMFMSGKEIKKKKHLFGLRIRVPPVPPNVAFKAEKEPEGTSHEFKIKGRKASKPISDSREVSNGIEKKGKKKSVGRPPGPYTRKMIQKTAEPLLDKESISENPTLDLPCSIGRTEGTAHSSNTSDVDFTGASSAKETTSSSISRHYGLSDSRKRTRTGRSWPAAIPHLRRRRGRLPRRALQTQNSEIVKDDEGKEDYQFDELNTEILNNLADQELQLNHLKNSITSYFGAAGRIACGEKYRVLARRVTLDGKVQYLVEWEGATAS |
